The source of these data is patent US20070059820A1.

Test [1] has as its target recombinant Flk-1 (UniProt P35918). Kind of test: ELISA on coated recombinant Flk-1, anti-rat IgG1 HRP; antibody at 111 ng/ml.
For test [2] the target is unchanged. As to the kind of experiment: competition ELISA: antibody mixed with Flk-1, added to coated human VEGF, anti-Flk-1-HRP; antibody at 4 ng/ml. Background: In an ELISA, binding on a coated surface is turned into a signal by an enzyme label.
Test [3] has the same target. Kind of test: competition ELISA: antibody mixed with Flk-1, added to coated human VEGF, anti-Flk-1-HRP; antibody at 333 ng/ml.
For test [4] the target is unchanged. As to the kind of experiment: ELISA on coated recombinant Flk-1, anti-rat IgG1 HRP; antibody at 12 ng/ml.
For test [5] the target is unchanged. Kind of test: competition ELISA: antibody mixed with Flk-1, added to coated human VEGF, anti-Flk-1-HRP; antibody at 0 ng/ml (no inhibitor).
Test [6] has the same target. Kind of test: ELISA on coated recombinant Flk-1, anti-rat IgG1 HRP; antibody at 333 ng/ml.
Test [7] shares this target. As to the kind of experiment: ELISA on coated recombinant Flk-1, anti-rat IgG1 HRP; antibody at 37 ng/ml.
Test [8] shares this target. As to the kind of experiment: competition ELISA: antibody mixed with Flk-1, added to coated human VEGF, anti-Flk-1-HRP; antibody at 37 ng/ml.
The target is the same in test [9]. As to the kind of experiment: competition ELISA: antibody mixed with Flk-1, added to coated human VEGF, anti-Flk-1-HRP; antibody at 1000 ng/ml.
The target is the same in test [10]. Kind of test: ELISA on coated recombinant Flk-1, anti-rat IgG1 HRP; antibody at 1000 ng/ml.
Test [11] shares this target. As to the kind of experiment: competition ELISA: antibody mixed with Flk-1, added to coated human VEGF, anti-Flk-1-HRP; antibody at 111 ng/ml.
The target is the same in test [12]. As to the kind of experiment: competition ELISA: antibody mixed with Flk-1, added to coated human VEGF, anti-Flk-1-HRP; antibody at 12 ng/ml.
For test [13] the target is unchanged. Kind of test: ELISA on coated recombinant Flk-1, anti-rat IgG1 HRP; antibody at 0 ng/ml (background).
The target is the same in test [14]. Kind of test: ELISA on coated recombinant Flk-1, anti-rat IgG1 HRP; antibody at 4 ng/ml.

UniProt P35918, sequence (P35918 20-762 limits assumed): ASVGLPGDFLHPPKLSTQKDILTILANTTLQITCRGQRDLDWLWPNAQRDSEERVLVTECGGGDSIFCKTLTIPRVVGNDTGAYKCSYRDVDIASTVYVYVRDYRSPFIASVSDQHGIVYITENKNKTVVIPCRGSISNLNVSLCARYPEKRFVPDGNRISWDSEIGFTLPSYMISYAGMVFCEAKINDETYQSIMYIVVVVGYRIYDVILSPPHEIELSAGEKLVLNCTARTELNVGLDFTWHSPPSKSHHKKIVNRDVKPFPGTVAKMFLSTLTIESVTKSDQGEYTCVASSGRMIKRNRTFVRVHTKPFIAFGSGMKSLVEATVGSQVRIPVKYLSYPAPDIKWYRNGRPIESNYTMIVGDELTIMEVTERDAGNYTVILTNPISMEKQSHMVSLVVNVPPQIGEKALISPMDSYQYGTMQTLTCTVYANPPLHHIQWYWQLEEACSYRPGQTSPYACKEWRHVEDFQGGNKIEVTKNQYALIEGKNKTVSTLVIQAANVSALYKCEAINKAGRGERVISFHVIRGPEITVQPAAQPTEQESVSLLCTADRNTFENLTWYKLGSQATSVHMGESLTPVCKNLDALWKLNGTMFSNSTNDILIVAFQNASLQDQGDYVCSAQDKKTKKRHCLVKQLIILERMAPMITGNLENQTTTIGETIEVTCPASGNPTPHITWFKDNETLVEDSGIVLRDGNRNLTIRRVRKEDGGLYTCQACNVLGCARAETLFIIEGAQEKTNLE

For DC101 antibody produced by a hybridoma, the ELISA signal (name and unit not given) was 0.724 with recombinant Flk-1 [1]; 0.403 with recombinant Flk-1 [4]; 0.894 with recombinant Flk-1 [6]; 0.585 in the test with recombinant Flk-1 [7]; 1.12 with recombinant Flk-1 [10]; 0.117 with recombinant Flk-1 [13]. Further, the ELISA signal (name and unit not given) with recombinant Flk-1 [14] amounted to 0.312. Moreover, the signal of Flk-1 bound to coated VEGF (name and unit not given) with recombinant Flk-1 [2] came to 0.992; with recombinant Flk-1 [3], 0.357; with recombinant Flk-1 [5] it was 1.1; in the test with recombinant Flk-1 [8] it was 0.834; in the test with recombinant Flk-1 [9], 0.193; in the test with recombinant Flk-1 [11] it was 0.635. The signal of Flk-1 bound to coated VEGF (name and unit not given) with recombinant Flk-1 [12] is 0.931.

B1: DC101 antibody expressed from CHO-S cells infected with Lenti-DC101-furin/2A14 (clone 7x-24) (antibody, from another filing, V domains shown)
VH: EVQLVETGGGLVQPGNSLKLSCATSGFIFSTTWMNWIRQTPGKRLEWLAQIEDKSNNYFISYSESVKGRFTISRDDSKSSVYLQMNNLKEEDTAIYYCSWKYRSNYYFDYWGQGVMVTVSS
VL: DIVLTQSPALAVSLEQRATISCKTSQNVDYYGISYLHWYQQKPGQQPKLLIYEGSNLASGIPARFSGSGSGTDFTLTIDPVEADDIVTYYCQQSKDYPYTFGAGTKLELKR
Regarding B1, the ELISA signal (name and unit not given) with recombinant Flk-1 [1] was determined as 0.616; with recombinant Flk-1 [4] it was 0.412; in the test with recombinant Flk-1 [6], 0.993; in the test with recombinant Flk-1 [7], 0.486; in the test with recombinant Flk-1 [10], 1.14; in the test with recombinant Flk-1 [13], 0.129. In addition, the ELISA signal (name and unit not given) with recombinant Flk-1 [14] worked out at 0.274. In addition, the signal of Flk-1 bound to coated VEGF (name and unit not given) with recombinant Flk-1 [2] worked out at 1.04; with recombinant Flk-1 [3] it was 0.237; with recombinant Flk-1 [5], 1.07; with recombinant Flk-1 [8] it was 0.826; with recombinant Flk-1 [9], 0.184; in the test with recombinant Flk-1 [11], 0.43. In addition, in the test with recombinant Flk-1 [12], the signal of Flk-1 bound to coated VEGF (name and unit not given) was 0.945.
